Entries after “also recorded” stand apart in the source; their conditions may differ.
Columns and labels:
[1] = biological target: T1, rat NgR1 (sNgR310) fragments (Rattus norvegicus, UniProt Q99M75, A303T/C287S/E284G); test: Western blot of acid/CNBr fragments of sNgR310 probed with 7E11; type: binding
T1 construct: made in house
T1 sequence (Q99M75 123-310 E284G/C287S/A303T): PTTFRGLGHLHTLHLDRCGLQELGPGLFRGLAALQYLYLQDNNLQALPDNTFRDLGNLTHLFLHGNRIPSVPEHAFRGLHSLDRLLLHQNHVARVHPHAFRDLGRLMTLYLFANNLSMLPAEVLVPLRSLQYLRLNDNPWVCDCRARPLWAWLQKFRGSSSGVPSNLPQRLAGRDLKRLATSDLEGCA
Description: (§1) A recombinant fragment of the rat NgR1 that contains all 8 LRR domains and the N- and C-terminal caps (sNgR310) was treated with either acid or cyanogen bromide (CNBr) and separated the fragments by gel electrophoresis. Untreated sNgR310 migrates with an apparent molecular weight of 42 kDa. Acid treatment of sNgR310 produced two major cleavage products of 15 kDa (aa 27-aa 122) and 30 kDa (aa 123-aa 310). CNBr treatment generated three fragments, a 33/35 kDa doublet (aa 27-aa 229), which may represent fragments with heterogeneous glycosylation, a 10 kDa product (aa 241-aa 310), and an 11-amino-acid fragment (aa 230-aa 240), which is not retained on the gel. […] Both the 15 kDa acid fragment and the 35 kDa CNBr fragment contained the sequence LDLSDNAQLRVVDPTT (SEQ ID NO: 1), consistent with 7E11 binding to a single epitope on NgR1.

[2] = biological target: T2, rat NgR1 (sNgR310) fragments (Rattus norvegicus, UniProt Q99M75, C43R/T53A); test: as above; type: binding
T2 construct: made in house
T2 sequence (Q99M75 27-229 C43R/T53A): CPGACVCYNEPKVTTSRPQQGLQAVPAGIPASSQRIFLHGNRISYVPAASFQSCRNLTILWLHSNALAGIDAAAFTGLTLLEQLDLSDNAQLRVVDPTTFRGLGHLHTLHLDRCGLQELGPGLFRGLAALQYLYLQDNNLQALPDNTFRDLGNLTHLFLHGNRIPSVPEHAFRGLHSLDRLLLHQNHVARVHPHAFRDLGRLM
Description: as §1

rat NgR1 = biological target: T3, rat NgR1 (Rattus norvegicus, UniProt Q99M75); test: Antibody binding to rat Nogo receptor-1
T3 sequence (Q99M75 27-447): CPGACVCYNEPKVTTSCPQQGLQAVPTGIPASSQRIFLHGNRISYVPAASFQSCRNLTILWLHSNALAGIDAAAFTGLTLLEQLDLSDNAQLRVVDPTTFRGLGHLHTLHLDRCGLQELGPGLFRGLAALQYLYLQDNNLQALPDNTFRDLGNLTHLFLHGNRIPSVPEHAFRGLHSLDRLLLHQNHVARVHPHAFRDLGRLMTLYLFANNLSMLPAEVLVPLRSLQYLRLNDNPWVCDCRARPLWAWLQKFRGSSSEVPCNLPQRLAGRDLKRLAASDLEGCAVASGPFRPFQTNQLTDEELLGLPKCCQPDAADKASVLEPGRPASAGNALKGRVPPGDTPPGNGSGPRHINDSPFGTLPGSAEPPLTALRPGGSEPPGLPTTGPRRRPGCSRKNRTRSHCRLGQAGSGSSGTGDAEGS

mouse NgR3 = biological target: T4, mouse NgR3 (Mus musculus, UniProt Q8K0S5); test: Antibody binding to mouse Nogo receptor-3; conditions: species not stated
T4 sequence (Q8K0S5 25-424): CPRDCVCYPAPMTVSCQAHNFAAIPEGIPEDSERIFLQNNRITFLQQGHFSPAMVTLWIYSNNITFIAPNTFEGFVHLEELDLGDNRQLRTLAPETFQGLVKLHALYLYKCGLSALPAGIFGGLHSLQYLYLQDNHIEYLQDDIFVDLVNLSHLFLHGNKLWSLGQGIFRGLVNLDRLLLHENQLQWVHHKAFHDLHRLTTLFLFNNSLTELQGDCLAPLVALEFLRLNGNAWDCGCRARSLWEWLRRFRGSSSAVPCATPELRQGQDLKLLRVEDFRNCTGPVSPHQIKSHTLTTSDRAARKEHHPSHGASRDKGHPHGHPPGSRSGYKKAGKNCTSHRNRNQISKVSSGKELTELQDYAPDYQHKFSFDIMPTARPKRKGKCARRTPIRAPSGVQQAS

B1: 7E11: murine monoclonal anti-Nogo receptor-1 antibody, IgG1 kappa, ATCC PTA-4587; immunogen rat Nogo receptor-1 residues 110-125 (antibody, V domains shown)
VH: VQLQESGAELVMPGASVKMSCKASGYTFTDYWMHWVKQRPGQGLEWIGAIDPSDSYSSYNQNFKGKATLTVDGSSSTAYMQLSSLTSEDSAVYYCARRITEAGAWFAYWGQGTTVT
VL: DVVMTQTPLSLPVSLGDQASISCRSSQSLVHSNGNTYLHWYLQKPGQSPKLLIYKVSNRFSGVPDRFSGSGSGTDFTLKISRVDAEDLGVYFCSQSTHVPFTFGGGTKLEIKRADAAPTVSISHH
7E11 binding to 30 kD acid fragment (aa 123-aa 310) [1]: did not bind | 7E11 binding to 35 kDa CNBr fragment (aa 27-aa 229) [2]: bound | binding to rat NgR1 (rat NgR1): bound; also recorded: binds well | binding to NgR3 (mouse NgR3): does not bind well

From patent US20080274112A1, “Nogo Receptor Antagonists” (priority 2003, published 2008)
